In test [1] the target is T1, Human ZNRF3 ECD (amino acids 56-219) (human, UniProt Q9ULT6 56-219, site-specifically biotinylated by BirA ligase at the C-terminal biotin-acceptor peptide).
T1 construct: range 56-219; The methods say that ZNRF3 means the ECD only; also called ZNR3 ECD; biotinylated ZNRF3
T1 sequence: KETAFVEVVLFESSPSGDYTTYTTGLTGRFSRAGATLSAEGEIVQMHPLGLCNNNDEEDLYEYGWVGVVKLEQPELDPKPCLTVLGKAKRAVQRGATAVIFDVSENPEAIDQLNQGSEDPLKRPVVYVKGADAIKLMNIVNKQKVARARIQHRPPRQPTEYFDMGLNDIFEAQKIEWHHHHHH
Briefly: yeast surface display titration: scFv-displaying yeast with increasing ZNRF3, flow cytometry, normalized MFI. How it is done:
(§1) Plasmids from the final round of selection were isolated using the Zymoprep Yeast Plasmid Miniprep Kit (Zymo Research) and sequenced. These plasmids were electroporated into S. cerevisiae EBY100 yeast and recovered in SDCAA selection media, followed by induction in SGCAA induction media. The individual scFv-transformed yeast were incubated with increasing concentration of biotinylated RNF43/ZNRF3. These yeast were stained with SA-647 and Myc-488 and fluorescence was monitored by flow cytometry. The data were analyzed by GraphPad Prism 7 and the highest affinity clones were identified for subsequent experiments.
A general note: A flow cytometer gives signals particle by particle.

In test [2] the target is T2, Human RNF43 Extracellular Domain (ECD) (amino acids 24-197) (human, UniProt Q68DV7 24-197, site-specifically biotinylated by BirA ligase at the C-terminal biotin-acceptor peptide).
T2 construct: range 24-197; The methods say that RNF43 means the ECD only; also called RNF43 ECD; biotinylated RNF43
T2 sequence: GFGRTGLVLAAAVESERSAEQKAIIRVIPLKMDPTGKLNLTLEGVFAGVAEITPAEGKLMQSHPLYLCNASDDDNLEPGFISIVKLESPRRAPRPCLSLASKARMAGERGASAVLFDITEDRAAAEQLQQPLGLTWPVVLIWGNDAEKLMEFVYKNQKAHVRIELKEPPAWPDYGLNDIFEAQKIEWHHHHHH
Briefly: yeast surface display titration: scFv-displaying yeast with increasing RNF43, flow cytometry, normalized MFI. How it is done:
as §1

As usually defined, the EC50 is the midpoint of the concentration-response curve. The low end stands for a more potent agent, the high end for a less potent agent.

B1: Z6 scFv (scFv)
scFv: ASQVQLVQSGAEVKNPGASVKVSCKASGYAFTSYGISWVRQAPGQGLEWMGWISAYTRNTNYAQKFQGRVTLTTDTSTSTAYMELRSLRSDDTAIYYCARDARYSLGVGAFDVWGQGTMVTVSSGILGSGGGGSGGGGSGGGGSETTLTQSPAFMSATPGDKVSISCKASRDIDDDLNWYQQKPGEAAISIIQEATTLVPGIPPRFSGSGYGTDFTLTINNIESEDAAYYFCLQHDDVPYTFGQGTKLEIKSGIL
Turning to B1, the EC50 in test [1] amounted to 113 nM.

B2: R5 scFv (scFv)
scFv: ASQITLKESGPTLVKPTQTLTLTCSFSGFSLSFSGVGVAWIRQPPGKALEWLALIYWDDDKRYSPSLKSRLTITKDTSKNQVVLTMTNMDPLDTATYYCAHREWKAFGAFDIWGQGTMVTVSSGILGSGGGGSGGGGSGGGGSQPVLTQSPSASGTPGQRVTISCSGSSSNIGSNTVNWYQQLPGTAPKLLIYSNNQRPSGVPDRFSGSKSVTSASLAISGLQSEDEAEYYCATWDDSLNGAVFGGGTQLTVLSGILG
In turn, B2 returned an EC50 in test [2] of 122 nM.
